This note sets out measurements from article PMC12067460, “Probing the ferredoxin:hydrogenase electron transfer complex by infrared difference spectroscopy†” (Chemical Science, 2025).

Where no end group is shown, it is not given here.

For assay [1], the target named is Y3pCNF-CpFd, ferredoxin CpFd from Clostridium pasteurianum with tyrosine Y3 replaced by 4-cyano-L-phenylalanine (holo) (Clostridium pasteurianum) (UniProt P00195). The assay is described as follows: MST; anaerobic; reducing conditions (dithionite); ferredoxin labelled with Alexa Fluor 647.
Assay [2] has as its target clostridial 2[4Fe-4S] ferredoxin CpFd from Clostridium pasteurianum, wild type (holo) (Clostridium pasteurianum) (UniProt P00195). The description is as above.
Assay [3] deals with ferredoxin PetF from Chlamydomonas reinhardtii, wild type, Alexa Fluor 647-labeled (Chlamydomonas reinhardtii) (UniProt P07839). Put plainly: MST; labeled PetF (200 nM) titrated with unlabeled CrHydA1 (0.003–10 µM) with 2 mM dithionite under anaerobic conditions; read-out: concentration-dependent fluorescence quenching of the Alexa Fluor 647 label; 50 mM TRIS pH 8, 50 mM NaCl, 1 mM MgCl2, 0.05 mg/mL BSA, 0.05% Tween20; Monolith NT.115, 22°C.

Assay [4] addresses T1, [FeFe]-hydrogenase CpI from Clostridium pasteurianum (Clostridium pasteurianum, UniProt P29166 1-574).
T1 construct: [FeFe]-hydrogenase CpI of Clostridium pasteurianum, with H-domain (H-cluster) and F-domain (three [4Fe-4S] clusters, one [2Fe-2S] cluster)
T1 sequence: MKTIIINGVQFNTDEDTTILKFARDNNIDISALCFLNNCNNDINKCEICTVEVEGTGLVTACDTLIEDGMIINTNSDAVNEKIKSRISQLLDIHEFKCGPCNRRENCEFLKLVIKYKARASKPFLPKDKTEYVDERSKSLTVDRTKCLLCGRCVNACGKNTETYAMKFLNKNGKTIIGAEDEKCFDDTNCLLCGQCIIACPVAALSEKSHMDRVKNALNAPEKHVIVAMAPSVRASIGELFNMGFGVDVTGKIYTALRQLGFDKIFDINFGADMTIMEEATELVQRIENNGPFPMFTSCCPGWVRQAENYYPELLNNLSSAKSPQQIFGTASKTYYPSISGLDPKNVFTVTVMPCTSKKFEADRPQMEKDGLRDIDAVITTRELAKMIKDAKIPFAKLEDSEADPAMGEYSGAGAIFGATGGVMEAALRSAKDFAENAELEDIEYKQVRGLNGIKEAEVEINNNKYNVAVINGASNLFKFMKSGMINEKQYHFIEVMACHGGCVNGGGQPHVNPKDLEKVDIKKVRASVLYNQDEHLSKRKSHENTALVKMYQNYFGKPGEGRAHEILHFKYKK
The assay is described as follows: MST; anaerobic; reducing conditions (dithionite); ferredoxin labelled with Alexa Fluor 647. Particulars: both partners purified.

“[FeFe]-hydrogenase CpI from Clostridium pasteurianum (from UniProt P29166 1-574) (enzyme)” yielded a Kd in assay [1] of 11.3 µM.

On to “[FeFe]-hydrogenase CrHydA1 from Chlamydomonas reinhardtii (enzyme)”, for which the Kd stood at 2.41 µM in assay [2] and 1.24 µM in assay [3].

B1: clostridial 2[4Fe-4S] ferredoxin CpFd from Clostridium pasteurianum, wild type (holo) (natural protein)
chain: AYKIADSCVSCGACASECPVNAISQGDSIFVIDADTCIDCGNCANVCPVGAPVQE
modifications: cysteine pairing not given here; also: Alexa Fluor 647 dye label, site not given here, binds two [4Fe-4S] clusters (F and F')
notes: Ferredoxin CpFd of Clostridium pasteurianum, 2[4Fe-4S] type, wild type; Tested reduced (with dithionite) and oxidized (without dithionite); the redox state is told by the assay; also called wild-type CpFd; holo-CpFd; source: E. coli C321.ΔA.opt
B1 registered a Kd in assay [4] of 12.4 ± 0.97 µM.

A word on the Kd: it is the constant that tells how readily two partners part at equilibrium.
